In the RNAGym collection of RNA variant scans (doi:10.1093/molbev/msab373) one finds reverse-splicing fitness data, which are given here for 83 variants.

B1: Azoarcus group I ribozyme (parent)
chain: GUGCCUUGCGCCGGGAAACCACGCAAGGGAUGGUGUCAAAUUCGGCGAAACCUAAGCGCCCGCCCGGGCGUAUGGCAACGCCGAGCCAAGCUUCGGCGCCUGCGCCGAUGAAGGUGUAGAGACUAGACGGCACCCACCUAAGGCAAACGCUAUGGUGAAGGCAUAGUCCAGGGAGUGGCGAAAGUCACACAAACCGG

Variants of B1 are the subject of the series. Put plainly: reverse-splicing fitness (ratio to wild type); higher = more active; in vitro selection; Mg2+ level not given. Put shortly: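 An in vitro group I ribozyme library with randomized positions was T7-transcribed and gel-purified. In triplicate, 10 pmol RNA in EPPS pH 7.5 was reacted with 50 pmoles of a 30-nt RNA substrate for 1 h at 37 °C across several added MgCl2 levels (1–48 mM), then stopped with EDTA. Products were reverse transcribed from a substrate-complementary primer, PCR-amplified and sequenced (HiSeq 4000). Fitness is a variant's read proportion after selection over that before, normalised to wild type.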
C82G A111G A120C C150A C169A U176C: the reverse-splicing fitness amounted to 0.0204. Next, C82G A111G A120C C150A C169A U176G: 0.00841; C82G A111G A120C C150A C169A U176A: 0.0223; C82G A111G A120C A145U C150G C169A: 0.00918. With C82G A111G A120C A145U C150G C169U, the reverse-splicing fitness is 0.00899. Next, C82G A111G A120C A145U C150G C169G: 0.00697; C82G A111G A120C A145U C169G: 0.00799. As for C82G A111G A120C A145U C169U, the figure is 0.0157; as for C82G A111G A120C A145U C169A, 0.00712. Turning to C82G A111C A145U C150U C169A U176G, the reverse-splicing fitness was 0.00772.

In the case of C82G A111C A145U C150U C169A U176A, the reverse-splicing fitness amounted to 0.0121.

For C82G A111C A145U C150U C169A U176C, the reverse-splicing fitness is 0.0132. For C82G A111C C169U, the reverse-splicing fitness is 0.0148.

Turning to C82G A111C C169A, the reverse-splicing fitness was determined as 0.00871. Regarding C82G A111C C169G, the reverse-splicing fitness was 0.00928. In the case of C82G A111G A120C A145C C150G C169A U176C, the reverse-splicing fitness came out at 0.0103.

As for C82G A111G A120C A145C C150G C169A U176G, the reverse-splicing fitness is 0.00627. As to C82G A111G A120C A145C C150G C169A U176A, the reverse-splicing fitness was 0.0108. As for C82G A111G A120C A145C C150U U176A, the figure is 0.0141; as for C82G A111G A120C A145C C150U U176C, 0.0167.

Take C82G A111G A120C A145C C150U U176G: the reverse-splicing fitness was 0.00724. Next, C82G A111C A145U U176G: 0.0645; C82G A111C A145U U176A: 0.138.

For C82G A111C A145U U176C, the reverse-splicing fitness came to 0.136. As to C82G A111C C169A U176G, the reverse-splicing fitness amounted to 0.00611.

In the case of C82G A111C C169A U176A, the reverse-splicing fitness came to 0.0198.

Consider C82G A111C C169A U176C, for which the reverse-splicing fitness was 0.023.

On to C82G A111C A145U C169U U176C, for which the reverse-splicing fitness is 0.0153. As for C82G A111C A145U C169U U176G, the figure is 0.00693; as for C82G A111C A145U C169U U176A, 0.0168. On to C82G A111G A120C A145G C150G C169G U176A, for which the reverse-splicing fitness stood at 0.0109. As for C82G A111G A120C A145G C150G C169G U176C, the figure is 0.0112. Take C82G A111G A120C A145G C150G C169G U176G: the reverse-splicing fitness was found to be 0.00653. As to C82G A111G A120C A145G C150A C169A U176A, the reverse-splicing fitness was 0.0208. Next, C82G A111G A120C A145G C150A C169A U176C: 0.0227; C82G A111G A120C A145G C150A C169A U176G: 0.00804; C82G A111G A120C A145G C150G C169A U176C: 0.0151.

For C82G A111G A120C A145G C150G C169A U176A, the reverse-splicing fitness came to 0.0153. As for C82G A111G A120C A145G C150G C169A U176G, the figure is 0.0091; as for C82G A111G A120C A145C C150G C169G U176G, 0.006. Next, C82G A111G A120C A145C C150G C169G U176C: 0.0101; C82G A111G A120C A145C C150G C169G U176A: 0.0112. Consider C82G A111C A145U C150U, for which the reverse-splicing fitness amounted to 0.172.

As for C82G A111G A120C A145U C150G, the reverse-splicing fitness amounted to 0.0127. Next, C82G A111G A120C A145U C150A: 0.0142. Next, C82G A111G A120C A145U C150U: 0.0494. Next, C82G A111G A120C A145C C150U C169A U176G: 0.00589. As to C82G A111G A120C A145C C150U C169A U176A, the reverse-splicing fitness is 0.012. As for C82G A111G A120C A145C C150U C169A U176C, the figure is 0.00829; as for C82G A111G A120C A145C C169G U176G, 0.0055; as for C82G A111G A120C A145C C169G U176C, 0.0182. With C82G A111G A120C A145C C169G U176A, the reverse-splicing fitness is 0.0254. Take C82G A111G A120C A145U C150A C169G U176C: the reverse-splicing fitness came to 0.0209.

In the case of C82G A111G A120C A145U C150A C169G U176G, the reverse-splicing fitness amounted to 0.00622. Next, C82G A111G A120C A145U C150A C169G U176A: 0.0168; C82G A111G A120C C150U C169A U176G: 0.00693; C82G A111G A120C C150U C169A U176A: 0.0199. Take C82G A111G A120C C150U C169A U176C: the reverse-splicing fitness stood at 0.0182.

For C82G A111G A120C A145G C150U C169G, the reverse-splicing fitness was found to be 0.00893. Turning to C82G A111G A120C A145G C150U C169A, the reverse-splicing fitness amounted to 0.0104. Consider C82G A111G A120C A145G C150U C169U, for which the reverse-splicing fitness came out at 0.016.

For the variant C82G A111C C150U U176C, the reverse-splicing fitness turned out to be 0.0801. As for C82G A111C C150U U176A, the figure is 0.0699; as for C82G A111C C150U U176G, 0.0217. Next, C82G A111G A120C A145G C150A C169G U176G: 0.00696; C82G A111G A120C A145G C150A C169G U176C: 0.0237; C82G A111G A120C A145G C150A C169G U176A: 0.02. For C82G A111G A120C C150G, the reverse-splicing fitness was 0.0105. On to C82G A111G A120C C150U, for which the reverse-splicing fitness worked out at 0.0417.

In the case of C82G A111G A120C C150A, the reverse-splicing fitness came out at 0.0154. As for C82G A111G A120C C150G C169A, the reverse-splicing fitness was determined as 0.00976. For C82G A111G A120C C150G C169U, the reverse-splicing fitness was found to be 0.0104.

Regarding C82G A111G A120C C150G C169G, the reverse-splicing fitness came to 0.008. Next, C82G A111G A120C A145G C150U C169U U176G: 0.00664; C82G A111G A120C A145G C150U C169U U176A: 0.0133. As for C82G A111G A120C A145G C150U C169U U176C, the figure is 0.0145; as for C82G A111G A120C A145U U176G, 0.00776; as for C82G A111G A120C A145U U176A, 0.0294.

Regarding C82G A111G A120C A145U U176C, the reverse-splicing fitness is 0.0434. Next, C82G A111G A120C A145G C150G U176G: 0.0057; C82G A111G A120C A145G C150G U176C: 0.011; C82G A111G A120C A145G C150G U176A: 0.00724. Next, C82G A111G A120C A145G C150U U176A: 0.0189.
